Publication PMC4455164, “Facilitated Tau Degradation by USP14 Aptamers via Enhanced Proteasome Activity”

B1: USP14-2 mutant (structured_RNA)
RNA: GGGUUCACUGCAGACUUGACGAAGCUUCUGAAAAAAAGUUAGUUUCGCUGGUUUAAAAUCGGUGCGGAAUGGAUCCACAUCUACGAAUUC
B2: USP14-1 mutant (structured_RNA)
RNA: GGGUUCACUGCAGACUUGACGAAGCUUGCAGUGAUGUGCUUCUAAAAAACAACCUAAAAAAAUUGCCAAUGGAUCCACAUCUACGAAUUC
B3: control RNA aptamer (ssRNA)
RNA: UUUGUCUAGCGCGUAGUGGGGAGAUGUUGUGAUACUGGGG
B4: USP14-3 mutant (structured_RNA)
RNA: GGGUUCACUGCAGACUUGACGAAGCUUAAAAAAAAGGCUCGUUUGGCCUGCCGAAAAAAGGCCGGGAAAUGGAUCCACAUCUACGAAUUC

Target: USP14 (GST-USP14) (UniProt P54578 1-494)
Sequence (P54578 whole entry): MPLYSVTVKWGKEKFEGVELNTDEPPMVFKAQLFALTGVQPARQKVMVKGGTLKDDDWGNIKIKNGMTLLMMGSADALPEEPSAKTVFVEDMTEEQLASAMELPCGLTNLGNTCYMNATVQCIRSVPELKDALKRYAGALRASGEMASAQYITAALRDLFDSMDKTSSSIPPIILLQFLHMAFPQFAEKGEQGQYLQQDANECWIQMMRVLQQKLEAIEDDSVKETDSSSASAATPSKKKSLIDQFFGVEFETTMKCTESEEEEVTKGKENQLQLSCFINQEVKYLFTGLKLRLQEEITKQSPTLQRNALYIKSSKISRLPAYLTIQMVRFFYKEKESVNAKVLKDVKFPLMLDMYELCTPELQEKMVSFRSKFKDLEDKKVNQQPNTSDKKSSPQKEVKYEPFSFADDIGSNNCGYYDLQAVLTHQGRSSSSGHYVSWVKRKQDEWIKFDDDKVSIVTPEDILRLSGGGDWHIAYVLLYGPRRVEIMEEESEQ
Assay: GST pull-down with RT-PCR; 2 pmol GST-protein on GST sepharose 4B resin + 20 pmol RNA; pull-down buffer not restated; SELEX binding buffer 30 mM Tris-HCl pH 7.5, 150 mM NaCl, 1.5 mM MgCl2, 2 mM DTT, 1% BSA, RT
Conditions: protein: recombinant; tags: N-terminal GST (pGEX-2T)

Binding result, no binding:
B1, B2, B3, B4
